Experiment [1] has as its target T1, human CTLA4 (human).
T1 construct: also called hCTLA4; hCTLA4-His-BAP
Kind of experiment: SPR Biacore T200, 37C, antibody captured, ATP 1 uM. For orientation: In SPR one partner is held on a chip, and binding of the other changes the refractive index at the surface.

In experiment [2] the target is T1, human CTLA4. Kind of experiment: SPR Biacore T200, 37C, antibody captured, ATP 1 uM. This is another data set of the same source.
Experiment [3] concerns the target T2, mouse CTLA4 extracellular region linked with a His-tag (mCTLA4-His) (mouse, UniProt P09793 36-161). Kind of experiment: SPR Biacore T200, 37C, antibody captured, ATP 1 uM.
Experiment [4] concerns the target T3, cynomolgus monkey CTLA4 (CyCTLA4-His-BAP) (cynomolgus monkey). Kind of experiment: SPR Biacore T200, 37C, antibody captured, ATP 1 uM.
Experiment [5] concerns the target T1, human CTLA4. In words: SPR Biacore T200, 37C, antibody captured, ATP 10 uM.
Description: (§1) Biacore T200 was used to measure the binding of the generated antibodies to human CTLA4. 20 mM ACES (pH 7.4), 150 mM NaCl, 2 mM MgCl₂, 0.05% Tween 20 with ATP added to the desired concentration was used as the running buffer, and the assay was performed at 37° C. First, Protein G (CALBIOCHEM) was immobilized onto a Series S Sensor Chip CM3 (GE Healthcare), and the antibodies were captured by interacting an antibody solution prepared in an ATP-free running buffer with the chip. Next, by interacting with a human CTLA4 solution prepared in a running buffer containing ATP to the desired concentration, or a human CTLA4 solution prepared in a running buffer containing no ATP, the binding ability of the antibody to human CTLA4 in the presence or absence of ATP was evaluated. Chips were regenerated with 25 mM NaOH and 10 mM Glycine-HCl (pH 1.5), and assay was performed by repeatedly capturing antibodies. The dissociation constant of each antibody for CTLA4 was calculated using Biacore T200 Evaluation Software 2.0. Specifically, the binding rate constant ka (L/mol/s) and the dissociation rate constant kd (1/s) were calculated by global fitting of the sensorgrams obtained by the measurement, using a 1:1 Langmuir binding model. The dissociation constant KD (mol/L) was calculated from those values. Alternatively, the dissociation constant KD (mol/L) was calculated by the steady state model. […]
Experiment [6] deals with T1, human CTLA4. The experiment is described as above. The source holds these as a separate data set.
The target of experiment [7] is T1, human CTLA4. Kind of experiment: SPR Biacore T200, 37C, antibody captured, ADP 10 uM.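 Note: antibodies held on a Protein G CM3 chip, human CTLA4 as analyte in ACES pH 7.4 buffer, rates from a global 1:1 Langmuir fit, Kd from rates or steady state.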
Description: (§2) Biacore T200 was used to measure the binding of the generated antibodies to human CTLA4. 20 mM ACES (pH 7.4), 150 mM NaCl, 2 mM MgCl₂, 0.05% Tween 20 with ATP added to the desired concentration was used as the running buffer, and the assay was performed at 37° C. First, Protein G (CALBIOCHEM) was immobilized onto a Series S Sensor Chip CM3 (GE Healthcare), and the antibodies were captured by interacting an antibody solution prepared in an ATP-free running buffer with the chip. Next, by interacting with a human CTLA4 solution prepared in a running buffer containing ATP to the desired concentration, or a human CTLA4 solution prepared in a running buffer containing no ATP, the binding ability of the antibody to human CTLA4 in the presence or absence of ATP was evaluated. Chips were regenerated with 25 mM NaOH and 10 mM Glycine-HCl (pH 1.5), and assay was performed by repeatedly capturing antibodies. The dissociation constant of each antibody for CTLA4 was calculated using Biacore T200 Evaluation Software 2.0. Specifically, the binding rate constant ka (L/mol/s) and the dissociation rate constant kd (1/s) were calculated by global fitting of the sensorgrams obtained by the measurement, using a 1:1 Langmuir binding model. The dissociation constant KD (mol/L) was calculated from those values. Alternatively, the dissociation constant KD (mol/L) was calculated by the steady state model. In addition, the binding amount of CTLA4 per unit amount of antibody was calculated by correcting the amount of CTLA4 bound as calculated from the sensorgram obtained by the assay with the amount of antibody captured onto the chip surface.
(§3) The binding ability of the generated variants to human CTLA4 in the presence of ADP or AMP was evaluated by Biacore T200 and compared with the binding ability in the presence of ATP.
Experiment [8] deals with T1, human CTLA4. Kind of experiment: SPR Biacore T200, 37C, antibody captured, AMP 10 uM.
Description: as §2, §3
For experiment [9], the target named is T1, human CTLA4. In words: SPR Biacore T200, 37C, antibody captured, ATP 10 uM. This is another data set of the same source.
Experiment [10] deals with T1, human CTLA4. The experiment is described as above. This is another data set of the same source.
Description: as §2
(§4) Next, the binding ability of some variants to mouse CTLA4 and cynomolgus monkey CTLA4 was evaluated.
For experiment [11], the target named is T2, mouse CTLA4 extracellular region linked …. The description is as above.
Description: as §2, §4
Experiment [12] deals with T3, cynomolgus monkey CTLA4 …. Described as above.
Description: as §2, §4
For experiment [13], the target named is T1, human CTLA4. Kind of experiment: SPR Biacore T200, 37C, antibody captured, ATP 100 uM.
Description: as §1
Experiment [14] has as its target T1, human CTLA4. The experiment is described as above. This is another data set of the same source.
Description: as §2, §4
Experiment [15] deals with T2, mouse CTLA4 extracellular region linked …. The description is as above.
Description: as §2, §4
The target in experiment [16] is T3, cynomolgus monkey CTLA4 …. The experiment is described as above.
Description: as §2, §4
The target of experiment [17] is T1, human CTLA4. Kind of experiment: SPR Biacore T200, 37C, antibody captured, no ATP, steady state model.
Description: as §1
Experiment [18] has as its target T1, human CTLA4. Described as above. This is another data set of the same source.
Description: Biacore T200 was used to measure the binding of the generated antibodies to human CTLA4. 20 mM ACES (pH 7.4), 150 mM NaCl, 2 mM MgCl₂, 0.05% Tween 20 with ATP added to the desired concentration was used as the running buffer, and the assay was performed at 37° C. First, Protein G (CALBIOCHEM) was immobilized onto a Series S Sensor Chip CM3 (GE Healthcare), and the antibodies were captured by interacting an antibody solution prepared in an ATP-free running buffer with the chip. Next, by interacting with a human CTLA4 solution prepared in a running buffer containing ATP to the desired concentration, or a human CTLA4 solution prepared in a running buffer containing no ATP, the binding ability of the antibody to human CTLA4 in the presence or absence of ATP was evaluated. Chips were regenerated with 25 mM NaOH and 10 mM Glycine-HCl (pH 1.5), and assay was performed by repeatedly capturing antibodies. The dissociation constant of each antibody for CTLA4 was calculated using Biacore T200 Evaluation Software 2.0. Specifically, the binding rate constant ka (L/mol/s) and the dissociation rate constant kd (1/s) were calculated by global fitting of the sensorgrams obtained by the measurement, using a 1:1 Langmuir binding model. The dissociation constant KD (mol/L) was calculated from those values. Alternatively, the dissociation constant KD (mol/L) was calculated by the steady state model.

T3 sequence (chain, as listed by the source limits assumed): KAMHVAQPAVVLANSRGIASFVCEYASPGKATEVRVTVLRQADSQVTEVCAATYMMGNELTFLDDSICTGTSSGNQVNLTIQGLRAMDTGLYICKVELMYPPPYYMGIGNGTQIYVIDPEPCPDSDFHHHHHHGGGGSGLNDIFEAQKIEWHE
T1 sequence (chain, as listed by the source limits assumed): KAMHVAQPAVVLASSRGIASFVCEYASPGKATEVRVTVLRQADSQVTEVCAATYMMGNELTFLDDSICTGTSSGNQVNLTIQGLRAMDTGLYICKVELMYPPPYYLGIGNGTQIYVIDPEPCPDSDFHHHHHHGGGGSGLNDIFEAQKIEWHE

B1: 04H1389-G1m/04L1305-k0MT (antibody, human IgG1, kappa)
heavy: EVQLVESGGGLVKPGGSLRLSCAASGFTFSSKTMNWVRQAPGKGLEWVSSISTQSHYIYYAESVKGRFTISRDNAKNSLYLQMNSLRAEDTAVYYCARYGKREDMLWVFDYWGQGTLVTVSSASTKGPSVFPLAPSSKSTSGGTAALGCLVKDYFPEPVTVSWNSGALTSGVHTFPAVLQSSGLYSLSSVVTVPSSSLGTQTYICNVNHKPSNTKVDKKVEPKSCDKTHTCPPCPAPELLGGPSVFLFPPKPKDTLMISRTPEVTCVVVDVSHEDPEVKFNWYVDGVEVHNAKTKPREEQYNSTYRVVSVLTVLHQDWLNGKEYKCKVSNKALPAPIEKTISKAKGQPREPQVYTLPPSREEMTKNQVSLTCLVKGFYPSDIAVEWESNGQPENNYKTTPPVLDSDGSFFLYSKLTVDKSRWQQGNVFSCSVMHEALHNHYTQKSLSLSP
light: DIVMTQSPLSLPVTPGEPASISCDGPSTGVGDYNYVHWYQQKPGQAPRLLIYFTSKKPSGVPDRFSGSGSGTDFTLKISRVEAEDVGVYYCQTYAAPLGPMFGQGTKLEIKRTVAAPSVFIFPPSDEQLKSGTASVVCLLNNFYPREAKVQWKVDNALQSGNSQESVTEQDSKDSTYSLSSTLTLSKADYEKHKVYACEVTHQGLSSPVTKSFNRGEC
The term Kd denotes the concentration at which binding is half-saturated. Broadly, the koff is the first-order rate constant of dissociation. As usually defined, the kon is the second-order rate constant of association. Turning to B1, the Kd came to 82 nM in experiment [1]; 72 nM in experiment [2]; 210 nM in [3]; 140 nM in [4]; 19 nM in [5]; 15 nM in [6]. The Kd in experiment [7] was 25 nM; in experiment [8] it was 79 nM; in experiment [9] it was 17 nM; in [10], 14 nM; in experiment [11], 32 nM; in [12] it was 26 nM. In addition, the Kd in experiment [13] was 5.4 nM; in experiment [14], 4.6 nM; in experiment [15], 12 nM; in experiment [16] it was 12 nM; in [17], 3200 nM; in [18], 2400 nM. For the same molecule, the koff in experiment [7] came out at 0.0038 s⁻¹; in experiment [8], 0.012 s⁻¹; in experiment [9] it was 0.0019 s⁻¹. In addition, the kon in experiment [7] came to 160000 M⁻¹ s⁻¹; in [8], 150000 M⁻¹ s⁻¹; in [9], 110000 M⁻¹ s⁻¹.

Values taken from patent US20260022175A1 (Chugai, published 2026).
